Laboratory results: the NTF2 design screens of Basanta et al. (2020)

Assay: protease stability score; higher = more stable; yeast display proteolysis, trypsin and chymotrypsin;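 further: log10 excess protease needed over predicted unfolded state with 0 meaning unfolded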

| Sequence | protease stability score |
| --- | --- |
| DEEQLKTIREWMNQVQRGNFDQWAKNLDKNAHVDYGDRSVTGREEWQRLMRRQKREIRMQVKVDHVSAQGENIEVQARVRFTHNGQPDETNNKITAKVHNGRVKHMRVEEDK | 0.248 |
| DEDRMKRLVRIFEHGDEDKLRKQADENATLKVGNHEIHGREEVQTFAQILKERVDHFHVRRVDLKGNSITALVRATVNGQSVEFKVIIVVQNGRIKKITIHATSEEQMKQLDKLFS | 0.959 |
| DDKHKVEQLLRRADDALRTNDERKYIEMVDKDVRITVGDKQIHGKDEAVKFLRTLHNTYDHVQIRVESIENDGEKFKVIVQITAKHNGKETSHTLSFDAQRHNGQVRVKHASMG | 1.21 |
| DHEDMEKLAKDLNKAIEQGDPDRMRDMADENVDAKIGDKVFHGDENVRKMIKSIRDHADHLRVKDWRVKGEKIVIDVHVNHNGKSAKLDLKAQAHNGTFTTLKIDPQFQRSMES | -0.234 |
| DESDVKRAQDMVQNEQDGNEEEFDKLLDENVHFNVGDKRVNGRQQYLREVKKKRDQIRFSIKIDSVRARNGEATIDASARMVVNGQPKTYKFVIHVVQHNGDVRHVRISVPEEDVKRLKS | 0.212 |
| DEDRLREQATNFIEAMQTGDTKRVDEQIDKDAQLVVGEKKYEGREQISTFVKEMHHQFDHVRLQRVTVSGNKVLLDVVMDFNGKDLRINIVIHMNNGKISQVQVDYTNPEDAKTARG | 0.587 |
| DEKNMRVVETYLKALTRGDPDQAMRQVDEDVELTVGDKEVKGREEFSKLVKKWQDQARFSLQIHRVKVHENHVNINAEVTWDVNGKPQSFSHIIHARVHNGRIKHMSWEVPTEEWQNIEK | 1.29 |
| DEDTLKKMAQKIADAIRKGDEDQMERLADEDARMSYGDTTWHGRQEVKKAVREFRNQFDHLTIKRITVKGEKVKIDAEFTVNGREVSFVVIAHVNNGRLKEVVVHFTDPDTLHEALK | 0.622 |
| DEDLLRRAEQFIKAELRNNPDRAKELADPNVKFNIGDKEIHGMDDFRRYLHKKVKNMKWRAKVTHMKVQGNHAKLHVKVTLDINGRPFDVTRDILIVFHNGKIRDVNVRVDPEDKKRQKE | 1.39 |
| DKEALDEIEKAARENDWEKLAKMADPNVTATIGNYRVHGRSQFEKWARRVRQEVDHIEVKSIDVHGEKARVNYVIVFNGHNVTAQVQIEAHNGHITYMEVDYTDEDQVRHVKDMLS | 1.6 |
| DEKLIKLLKSLLKIQESGDPDKLRTMADPNVRFNIGDKVFHGMEEYATHVVELRKQAHIRIERLSNSDSNGVVNADFTRVNNHNGKPDSRRQEVTYVAHGDRIKEVNNQDHQ | -0.503 |
| DEDRTRRMLEKVFEYVVKGDVDHVRKHGKPNVRYEYADKKKEGEEVYKLIVKIVKKVGAEAKRREQEVKGDTMRANFQYNKGDKTVQTTAEAQYEGDKADKLRAELTDEVKKVVHQG | -0.152 |
| DEENSKVYEEWLKAVHNGDPDQVRRQIDPNVKINVGEFDLKGRETVAEHVKKMKDEAHVDQDIHSIEIQGDKVRVDAQYSAEINGKPTSNHLDASVNVKNGQIKRVDVEFSK | -0.131 |
| DEEQVRKVVEQLLKMLQNKNTEEIVKLVKEDATFTLGDETRRGQEDVRKLVQRLKEQGAEFHTHEVRVKGGEAKAKTQWHVANREVHAEVKYVVRGDKVEKVEVRWSEEAKKALKEG | -0.071 |
| DERAHEAIENWLRAEQTNDPKQVKDNADPNARVHVGDKVLHGMEEIQDELKRRIDQARYHIKDFHIDIQGEKAQIDREYTFSINGRPMSNTVRQEAKVDNGKIKEVNFRVSEELEDQEHK | -0.242 |
| DDEDEHKFATRMAEILHTGDPDRFQEQVDENVEARYGDKEYHGDEQAKTAFKHVVERVDTVEIKHMDAKNGKVSVHFVLDYDGEKQHVTLNVELHNGKAQRVEFQTQ | 0.144 |
| DEEHLLSRLAKEFWEDWKQGDPNKASKQADKDVHVQIGDKEYHGREHLERLFKEVKKDVDHNTSRITDLKVDENHIDLKVSFSMNVNGQNITMVVDVKMRIVNGHAKAVDIKYK | 1.37 |
| DDDQQRQAEKIVRAIRHGNEQEVDELVDENVRIEYGDKVVHGRSQLRKKMQDEKRHIRQDIKVDTVKEDGDKALIHFKNNFTVNGTPTTNTYSYEVEFTNGRAKELRIRVDPQEVRKQEK | -0.118 |
| DEELRKQAEEVMKAWQHGDEKTYMDLFDPNAKWEYGDDNITGRENMSDYMRKVRKEIRVHVQSVEVRAHNGRLEVVATEEREHNGRPDTVTVIMEAKAHNGKIQVVRVEERQ | 0.404 |
| DENLNTLMTQFMRAIQRGDEKRAKQLADPNAEIKYGDRSIHGMDQHADTIRKIRRKMRVDVTEVSHTTDGEQVNVEVTAIFNHNGEPKKRKFQFSATISNGRIKQVEVQDSQ | 0.654 |
| DEEAAKRLENILKAEERNDEDSLRRLMDKDAHINVGDRQVHGMDRRRENVQHQSRRSDIQLESINKHENGDTVHVDVVRRYQHNGRPSRERFDAVAQVHNGKMRSMTAQDSQ | -0.44 |
| DEEQAKTIMEKWQKAVQTNNDELADKLYKPNVEWENGDEQRQGKEVVVKMLQKAQKKGVEFQVRKAKVEGDRVEMVYDVRIGDQTVTFTVRMDVHGGRVERVKAEASDEVKKALKKG | 0.444 |
| DERDAKKRIKDMIEALHTGDPDEFKRNLPPNARLEYGDKRVHGREQLAREVEKERKRFDHVEVKHIKVDNGRVHVELDLNVNGRTETRELVFNVSNGRVEEVHIRVP | -0.186 |
| DEEALKFAETFLEVLHKGNPDDLRRLIDENVEIKIGDHEIDGMDNAVKQLHTRIKEINMHIKVDSMKAQGDSIKIHFTREVHRDGRPDTRHATLIMRFNNGELQRFQVDDRQ | 0.335 |
| DEDKLREVAEEMNKGDPQTLADNADKDARLRVGDREWHGREDVEKFNNQWRREVDHVDIERVTVSPNRVEAVYVVTVNGKRIHAKFEAKVHDGRIKEMTVSVTNPEQQKDLERQVD | -0.1 |
